Experimental data: article PMC13208732 (2026)

Legend:
[1] = molecular target: T1, recombinant human placental growth factor 2 (PlGF-2) (human, UniProt P49763-3 19-170); assay: ELISA; competition with biotinylated VEGFR1, no heparin
T1 chain: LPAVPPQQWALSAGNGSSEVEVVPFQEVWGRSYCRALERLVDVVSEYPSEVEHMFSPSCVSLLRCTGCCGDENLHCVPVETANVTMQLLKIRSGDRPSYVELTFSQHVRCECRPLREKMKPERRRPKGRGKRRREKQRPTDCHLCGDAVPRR

[2] = molecular target: T1, recombinant human placental growth …; assay: ELISA; competition with biotinylated VEGFR1, 1 ug/mL heparin

B1: VEGFR1 domains 1 to 6 fused to a C-terminal Fc, biotinylated (Fc fusion)
chain: SKLKDPELSLKGTQHIMQAGQTLHLQCRGEAAHKWSLPEMVSKESERLSITKSACGRNGKQFCSTLTLNTAQANHTGFYSCKYLAVPTSKKKETESAIYIFISDTGRPFVEMYSEIPEIIHMTEGRELVIPCRVTSPNITVTLKKFPLDTLIPDGKRIIWDSRKGFIISNATYKEIGLLTCEATVNGHLYKTNYLTHRQTNTIIDVQISTPRPVKLLRGHTLVLNCTATTPLNTRVQMTWSYPDEKNKRASVRRRIDQSNSHANIFYSVLTIDKMQNKDKGLYTCRVRSGPSFKSVNTSVHIYDKAFITVKHRKQQVLETVAGKRSYRLSMKVKAFPSPEVVWLKDGLPATEKSARYLTRGYSLIIKDVTEEDAGNYTILLSIKQSNVFKNLTATLIVNVKPQIYEKAVSSFPDPALYPLGSRQILTCTAYGIPQPTIKWFWHPCNHNHSEARCDFCSNNEESFILDADSNMGNRIESITQRMAIIEGKNKMASTLVVADSRISGIYICIASNKVGTVGRNISFYITDVPNGFHVNLEKMPTEGEDLKLSCTVNKFLYRDVTWILLRTVNNRTMHYSISKQKMAITKEHSITLNLTIMNVSLQDSGTYACRARNVYTGEEILQKKEIT
modifications: biotin (EZ-Link Sulfo-NHS-Biotinylation Kit)
Work on B1 yielded an IC50 [1] of 142 nM and an IC50 [2] of 75.1 nM.
